Data reported in publication PMC9674223, “Voltage-sensor movements in the Eag Kv channel under an applied electric field” (Proceedings of the National Academy of Sciences of the …, 2022).

Experiments:
[1] = target: T1, vertebrate calmodulin (CaM) (vertebrate, UniProt P0DP23 1-149); experiment: cryo-EM structure; Eag1-CaM complex purified with Ca2+, reconstituted into 90:5:5 POPC:POPG:cholesterol liposomes with 300 mM KCl; polarized with valinomycin and exchange of the external solution to 300 mM NaCl (a smaller dataset on unpolarized vesicles too); 10 mM Tris pH 8.0; conditions: both partners purified
T1 construct: vertebrate calmodulin, expressed from a separate vector without a tag; source: HEK293S GnTI- cells infected with rEag1 and CaM baculoviruses, co-purified with rEag1 in the presence of Ca2+

[2] = target: the molecule itself; experiment: as above

binding result [1]: binds
B1: rat Eag1 with residues 773 to 886 truncated (rEag1) (natural protein, UniProt Q63472 1-962, looked up)
chain: MTMAGGRRGLVAPQNTFLENIVRRSNDTNFVLGNAQIVDWPIVYSNDGFCKLSGYHRAEVMQKSSACSFMYGELTDKDTVEKVRQTFENYEMNSFEILMYKKNRTPVWFFVKIAPIRNEQDKVVLFLCTFSDITAFKQPIEDDSCKGWGKFARLTRALTSSRGVLQQLAPSVQKGENVHKHSRLAEVLQLGSDILPQYKQEAPKTPPHIILHYCVFKTTWDWIILILTFYTAILVPYNVSFKTRQNNVAWLVVDSIVDVIFLVDIVLNFHTTFVGPAGEVISDPKLIRMNYLKTWFVIDLLSCLPYDVINAFENVDEGISSLFSSLKVVRLLRLGRVARKLDHYIEYGAAVLVLLVCVFGLAAHWMACIWYSIGDYEIFDEDTKTIRNNSWLYQLALDIGTPYQFNGSGSGKWEGGPSKNSVYISSLYFTMTSLTSVGFGNIAPSTDIEKIFAVAIMMIGSLLYATIFGNVTTIFQQMYANTNRYHEMLNSVRDFLKLYQVPKGLSERVMDYIVSTWSMSRGIDTEKVLQICPKDMRADICVHLNRKVFKEHPAFRLASDGCLRALAMEFQTVHCAPGDLIYHAGESVDSLCFVVSGSLEVIQDDEVVAILGKGDVFGDVFWKEATLAQSCANVRALTYCDLHVIKRDALQKVLEFYTAFSHSFSRNLILTYNLRKRIVFRKISDVKREEEERMKRKNEAPLILPPDHPVRRLFQRFRQQKEARLAAERGGRDLDDLDVEKGNALTDHTSANHSLVKASVVTVRESPATPVSFYPIPEQTLQATVLEVKHELKEDIKALNAKMTSIEKQLSEILRILMSRGSSQSPQDTCEVSRPQSPESDRDIFGAS
notes: rat Eag1 voltage-dependent K+ channel; construct corresponding to rat Eag1 with residues 773 to 886 truncated; Tetrameric channel (C4 symmetric up map); The C-terminal GFP-His6 tag was linked by a preScission protease site and removed; also called Eag channel; Eag Kv channel; not shown: GFP, C-terminal, cleaved; His6, C-terminal, cleaved
binding result [2]: binds
